Results published in publication PMC5913134, “The IL-33-PIN1-IRAK-M axis is critical for type 2 immunity in IL-33-induced allergic airway inflammation” (Nature Communications, 2018).

Target: PIN1 (GST-PIN1, GFP-PIN1, 15N-PIN1-WW) (UniProt Q13526)
Experiment: co-IP with anti-GFP, blot
Details: reference: wild type; sites S110

IRAK-M (transfected constructs and synthetic peptides) (from UniProt Q9Y616) S110A
binding against the reference: lost
